# B1: BDNF: brain-derived neurotrophic factor, inducer of miR-128 expression (protein, UniProt P23560 19-247, looked up)
# Neurotrophic factor BDNF …: APMKEANIRGQGGLAYPGVRTHGTLESVNGPKAGSRGLTSLADTFEHVIEELLDEDQKVRPNEENNKDADLYTSRVMLSSQVPLEPPLLFLLEEYKNYLDAANMSMRVRRHSDPARRGELSVCDSISEWVTAADKKTAVDMSGGTVTVLEKVPVSKGQLKQYFYETKCNPMGYTKEGCRGIDKRHWNSQCRTTQSYVRALTMDSKKRIGWRFIRIDTSCVCTLTIKRGR
# Assays:
# miR-128-2−/− mice = test: Survival of miR-128-2-/- mice under anticonvulsant treatment (Kaplan-Meier survival curves); type: in vivo; conditions: sodium valproate 0.26% w/v in drinking water, oral, n=11
# [1] = system: Dravet-syndrome mice (Scn1a or Gabrg2 deficient mice); test: Ectopic miR-128 overexpression in Dravet-syndrome mouse models (Scn1a or Gabrg2 deficient mice); type: in vivo; conditions: supplied into neurons of the hippocampus or thalamus; Dravet-like syndrome mice
# Text: The inventors of the instant disclosure ectopically overexpress miR-128 in mouse models of severe human generalized childhood epilepsy such as the Dravet-syndrome (Scn1a or Gabrg2 deficient mice) to establish the efficacy of miR-128 in averting seizures in these mice. Mice with a loss of Scna1 and Gabrg2 display spontaneous seizures and ataxia beginning in the fourth postnatal week followed by premature death from seizure-related cause. Applicants test the effects of miR-128 overexpression on seizure development and survival in three to four week old Dravet-syndrome mice. The ability of genetic miR-128 overexpression in postnatal forebrain neurons to protect mice against spontaneous seizure development is also tested. Secondly, Applicants test the seizure-suppressing ability of oligonucleotide or AAV-based miR-128 overexpression in different brain regions (striatum, temporal cortex, hippocampus, mediodorsal thalamus) to determine whether there are specific locations that can short-circuit brain-wide seizures due to local miR-128 overexpression. Ectopically supplied miR-128 into the neurons of the hippocam pus or thalamus protects mice suffering from Dravet-like syndrome against spontaneous recurrent seizures and premature death.
# [2] = system: primary striatal neuron cultures; test: Gene expression (TaqMan qRT-PCR) in BDNF-treated primary striatal neuron cultures; type: cell-based, mouse; conditions: 0.05 ng/ul BDNF, day 10 in vitro; 0, 2, 6 and 24 hours
# Method: Primary striatal neuron cultures obtained from E18 mouse brain were treated on day 10 in vitro with 0.05 ng/ul brain-derived neurotrophic factor (BDNF) in water. RNA from cultures was prepared at 0, 2, 6 and 24 hours after stimulation and gene expression change were analyzed using the Tagman qRT-PCR assay. […] Data are shown as mean, error bars represent s.e.m., p-value was determined by 2-way ANOVA, FosB treatment 0.0014, time <0.0001. 124a treatment 0.1091, time 0.0861, Arpp21 treatment 0.0064, time 0.0190. miR-128-2 treatment 0.0160, time 0.2097.
# Relative expression levels of mature miRNAs and mRNAs were measured by TaqMan assays using total extracted RNA from brain samples, according to manufacturer's protocol (Life Technologies, Carlsbad, Calif.). Purified RNA samples were assayed by qRT-PCR for relative gene expression using pre-designed TaqMan gene expression assays from Applied Biosystems (ABI) as recommended by the manufacture. The following pre-designed TaqMan gene expression assays from Applied Biosystems (ABI) were used: miR-128 (Assay ID 002216), sno135 (Assay ID 001230), miR-124a (Assay ID 001182), Fosb Mm00500401_m1, Fosl2 Mm00484442_m1, Arc Mm00479619_g1, JunB Mm04243546_s1, Darpp-32 Mm00454892_m1, Btg2 Mm00476162_m1, Gadd45g Mm01352550_g1, Dusp1 Mm00457274_g1, Nr4a1 Mm01300401_m1, Jun Mm00495062_s1, Actb Mm00607939_s1, Arpp-21 Mm00473630_m1 (exon spanning probe detects exons that are common to all Arpp-21 isoforms), Arpp21 Mm00473645_m1 (exon spanning probe that specifically detects the long TARPP-isoform of Arpp-21). Cycle counts for miRNA quantification were normalized to snoRNA135 or miR-124a as indicated, and cycle counts for mRNA quantification were normalized to Actb or Gapdh. […] Calculation of standard deviation (SDΔCt=(SDtarget2+SDref2)1/2) and error bars (RQ1=2^(−(ΔΔCt+SDΔΔCt)), and RQ2=2^(−(ΔΔCt−SDΔΔCt))) was performed according to ABI technical literature Part Number 4371095 Rev B.
molecule,measurement,setting,value
CCCC(CCC)C(=O)O [valproic acid],lethal impact of miR-128 deficiency (lifespan),miR-128-2−/− mice,prevented
"miR-128: microRNA, UCACAGUGAACCGGUCUCUUU (SEQ ID NO: 1) (listed as RNA, chemistry not fully specified)",spontaneous recurrent seizures and premature death,[1],protects
B1,expression of immediate early gene FosB,[2],strong but transient inducer
same,expression of miR-128,[2],stable increase
same,expression of miR-128 host gene Arpp21,[2],stable increase
same,expression of neuron-specific miRNA miR-124a,[2],no effect

# — patent US10087443B2, “Compositions and methods for modulating neuronal excitability and motor behavior” (ICAHN SCHOOL OF MEDICINE AT MOUNT SINAI, priority 2013, dated 2018)
